Results from the supplement of paper PMC10567573.

B1: NEUROD6 (parent)
chain: YHSPELTTPPGHGTLDNSKSMKPY

Variants of: B1
Assay: protein stability index of a GFP-peptide fusion (GPS, HEK-293T) (PSI 1-6); higher = more stable
Conditions: c terminus: a fixed tail appended
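Further: lentivirally expressed fusions sorted by FACS into six bins by GFP to DsRed ratio, PSI derived from sequencing read proportions per bin multiplied by bin number.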

First: YHSPELTTCPGHGTLDNSKSMKPY [P9C]
Second: YHSPELTTIPGHGTLDNSKSMKPY [P9I]
The protein stability index of the first is lower: 2.18 for the first, 2.35 for the second.

Going from YHSPELTTMPGHGTLDNSKSMKPY [P9M] to YHSPELTTLPGHGTLDNSKSMKPY [P9L], the protein stability index rises from 1.8 to 2.64.

First: YHSPELTTHPGHGTLDNSKSMKPY [P9H]
Second: YHSPELTTTPGHGTLDNSKSMKPY [P9T]
The protein stability index of the first is higher: 3.09 for the first, 2.32 for the second.

Compared with YHSPELTTYPGHGTLDNSKSMKPY [P9Y], YHSPELTTEPGHGTLDNSKSMKPY [P9E] is higher in protein stability index: 1.66 for the first, 2.58 for the second.

Compared with YHSPELTTAPGHGTLDNSKSMKPY [P9A], YHSPELTTVPGHGTLDNSKSMKPY [P9V] is lower in protein stability index: 2.04 for the first, 1.95 for the second.

First: YHSPELTTGPGHGTLDNSKSMKPY [P9G]
Second: YHSPELTTDPGHGTLDNSKSMKPY [P9D]
The protein stability index of the first is lower: 2.03 for the first, 2.78 for the second.

Compared with YHSPELTTRPGHGTLDNSKSMKPY [P9R], YHSPELTTSPGHGTLDNSKSMKPY [P9S] is lower in protein stability index: 2.29 for the first, 2.22 for the second.

Going from YHSPELTTFPGHGTLDNSKSMKPY [P9F] to YHSPELRTPPGHGTLDNSKSMKPY [T7R], the protein stability index rises from 1.63 to 3.58.

Going from YHSPELFTPPGHGTLDNSKSMKPY [T7F] to YHSPELKTPPGHGTLDNSKSMKPY [T7K], the protein stability index rises from 2.12 to 2.69.

First: YHSPELSTPPGHGTLDNSKSMKPY [T7S]
Second: YHSPELMTPPGHGTLDNSKSMKPY [T7M]
The protein stability index of the first is lower: 1.96 for the first, 3.75 for the second.

First: YHSPELQTPPGHGTLDNSKSMKPY [T7Q]
Second: YHSPELNTPPGHGTLDNSKSMKPY [T7N]
The protein stability index of the first is lower: 2.39 for the first, 2.84 for the second.

Going from YHSPELYTPPGHGTLDNSKSMKPY [T7Y] to YHSPELITPPGHGTLDNSKSMKPY [T7I], the protein stability index falls from 2.55 to 2.19.

First: YHSPELHTPPGHGTLDNSKSMKPY [T7H]
Second: YHSPELATPPGHGTLDNSKSMKPY [T7A]
The protein stability index of the first is higher: 1.86 for the first, 1.72 for the second.

First: YHSPELVTPPGHGTLDNSKSMKPY [T7V]
Second: YHSPELCTPPGHGTLDNSKSMKPY [T7C]
The protein stability index of the first is higher: 2.49 for the first, 1.98 for the second.

Going from YHSPELWTPPGHGTLDNSKSMKPY [T7W] to YHSPELETPPGHGTLDNSKSMKPY [T7E], the protein stability index rises from 3.05 to 4.01.

Compared with YHSPELDTPPGHGTLDNSKSMKPY [T7D], YHSPELPTPPGHGTLDNSKSMKPY [T7P] is higher in protein stability index: 3.48 for the first, 3.56 for the second.

Compared with YHSPELGTPPGHGTLDNSKSMKPY [T7G], YHSPELLTPPGHGTLDNSKSMKPY [T7L] is lower in protein stability index: 2.97 for the first, 2.3 for the second.

Compared with YHSPELTTPPGHRTLDNSKSMKPY [G13R], YHSPELTTPPGHCTLDNSKSMKPY [G13C] is higher in protein stability index: 1.76 for the first, 1.99 for the second.

First: YHSPELTTPPGHDTLDNSKSMKPY [G13D]
Second: YHSPELTTPPGHYTLDNSKSMKPY [G13Y]
The protein stability index of the first is higher: 2.46 for the first, 2.07 for the second.

First: YHSPELTTPPGHHTLDNSKSMKPY [G13H]
Second: YHSPELTTPPGHQTLDNSKSMKPY [G13Q]
The protein stability index of the first is higher: 2.48 for the first, 2.11 for the second.

Compared with YHSPELTTPPGHATLDNSKSMKPY [G13A], YHSPELTTPPGHLTLDNSKSMKPY [G13L] is lower in protein stability index: 2.28 for the first, 2.14 for the second.

First: YHSPELTTPPGHMTLDNSKSMKPY [G13M]
Second: YHSPELTTPPGHVTLDNSKSMKPY [G13V]
The protein stability index of the first is higher: 2.13 for the first, 2.05 for the second.

Going from YHSPELTTPPGHSTLDNSKSMKPY [G13S] to YHSPELTTPPGHNTLDNSKSMKPY [G13N], the protein stability index rises from 2.19 to 2.47.

First: YHSPELTTPPGHITLDNSKSMKPY [G13I]
Second: YHSPELTTPPGHFTLDNSKSMKPY [G13F]
The protein stability index of the first is lower: 2.06 for the first, 2.18 for the second.

Compared with YHSPELTTPPGHWTLDNSKSMKPY [G13W], YHSPELTTPPGHTTLDNSKSMKPY [G13T] is higher in protein stability index: 1.76 for the first, 2.41 for the second.

First: YHSPELTTPPGHKTLDNSKSMKPY [G13K]
Second: YHSPELTTPPGHETLDNSKSMKPY [G13E]
The protein stability index of the first is lower: 2.35 for the first, 2.67 for the second.

First: YHSPELTMPPGHGTLDNSKSMKPY [T8M]
Second: YHSPELTGPPGHGTLDNSKSMKPY [T8G]
The protein stability index of the first is lower: 1.92 for the first, 2.47 for the second.

Going from YHSPELTSPPGHGTLDNSKSMKPY [T8S] to YHSPELTRPPGHGTLDNSKSMKPY [T8R], the protein stability index rises from 2 to 2.35.

First: YHSPELTDPPGHGTLDNSKSMKPY [T8D]
Second: YHSPELTEPPGHGTLDNSKSMKPY [T8E]
The protein stability index of the first is lower: 3.14 for the first, 3.34 for the second.

Compared with YHSPELTKPPGHGTLDNSKSMKPY [T8K], YHSPELTQPPGHGTLDNSKSMKPY [T8Q] is higher in protein stability index: 2.37 for the first, 2.52 for the second.

Compared with YHSPELTWPPGHGTLDNSKSMKPY [T8W], YHSPELTIPPGHGTLDNSKSMKPY [T8I] is higher in protein stability index: 1.84 for the first, 2.12 for the second.

Compared with YHSPELTCPPGHGTLDNSKSMKPY [T8C], YHSPELTAPPGHGTLDNSKSMKPY [T8A] is higher in protein stability index: 2.01 for the first, 2.17 for the second.

Going from YHSPELTFPPGHGTLDNSKSMKPY [T8F] to YHSPELTLPPGHGTLDNSKSMKPY [T8L], the protein stability index falls from 2.43 to 2.1.

Compared with YHSPELTHPPGHGTLDNSKSMKPY [T8H], YHSPELTNPPGHGTLDNSKSMKPY [T8N] is higher in protein stability index: 2.15 for the first, 2.52 for the second.

Going from YHSPELTVPPGHGTLDNSKSMKPY [T8V] to YHSPELTYPPGHGTLDNSKSMKPY [T8Y], the protein stability index rises from 2.04 to 2.11.

Going from YHSPELTTPPGHGTLGNSKSMKPY [D16G] to YHSPELTTPPGHGTLFNSKSMKPY [D16F], the protein stability index rises from 1.56 to 1.75.

Compared with YHSPELTTPPGHGTLHNSKSMKPY [D16H], YHSPELTTPPGHGTLCNSKSMKPY [D16C] is higher in protein stability index: 2.46 for the first, 2.66 for the second.

First: YHSPELTTPPGHGTLANSKSMKPY [D16A]
Second: YHSPELTTPPGHGTLENSKSMKPY [D16E]
The protein stability index of the first is lower: 1.65 for the first, 2.32 for the second.

Compared with YHSPELTTPPDHGTLDNSKSMKPY [G11D], YHSPELTTPPRHGTLDNSKSMKPY [G11R] is lower in protein stability index: 2.69 for the first, 2.29 for the second.

First: YHSPELTTPPWHGTLDNSKSMKPY [G11W]
Second: YHSPELTTPPHHGTLDNSKSMKPY [G11H]
The protein stability index of the first is lower: 1.98 for the first, 1.99 for the second.

Compared with YHSPELTTPPSHGTLDNSKSMKPY [G11S], YHSPELTTPPIHGTLDNSKSMKPY [G11I] is higher in protein stability index: 2.17 for the first, 2.21 for the second.

Going from YHSPELTTPPMHGTLDNSKSMKPY [G11M] to YHSPELTTPPTHGTLDNSKSMKPY [G11T], the protein stability index falls from 2.48 to 2.08.

Going from YHSPELTTPPKHGTLDNSKSMKPY [G11K] to YHSPELTTPPLHGTLDNSKSMKPY [G11L], the protein stability index falls from 2.5 to 2.31.

Compared with YHSPELTTPPNHGTLDNSKSMKPY [G11N], YHSPELTTPPQHGTLDNSKSMKPY [G11Q] is lower in protein stability index: 2.39 for the first, 2.28 for the second.

First: YHSPELTTPPYHGTLDNSKSMKPY [G11Y]
Second: YHSPELTTPPAHGTLDNSKSMKPY [G11A]
The protein stability index of the first is lower: 2.07 for the first, 2.34 for the second.

First: YHSPELTTPPVHGTLDNSKSMKPY [G11V]
Second: YHSPELTTPPCHGTLDNSKSMKPY [G11C]
The protein stability index of the first is lower: 1.96 for the first, 2.06 for the second.

Going from YHSPELTTPPEHGTLDNSKSMKPY [G11E] to YHSPELTTPPFHGTLDNSKSMKPY [G11F], the protein stability index falls from 2.67 to 1.73.
